Results reported in publication doi:10.1101/2025.08.04.668392 (bioRxiv, 2025).
Blank lines part the entries; values can stand above or below the molecule they belong to.

What was measured:
[1] = target: His-tagged Importin β (Impβ), H. sapiens, from pQE60-Impβ (human) (UniProt Q14974); experiment: ITC
[2] = target: His-tagged Importin β (Impβ), H. sapiens, from pQE60-Impβ (human, UniProt Q14974 1-876); experiment: ITC
[3] = target: Importin β (hsImpβ) of the purified trimeric complex Impβ:Imp7:H1.11L-chick (human, UniProt Q14974 1-876); experiment: cross-linking
Chain of Importin β (hsImpβ) of the purified trimeric complex Impβ:Imp7:H1.11L-chick (Q14974 whole entry, one chain of several): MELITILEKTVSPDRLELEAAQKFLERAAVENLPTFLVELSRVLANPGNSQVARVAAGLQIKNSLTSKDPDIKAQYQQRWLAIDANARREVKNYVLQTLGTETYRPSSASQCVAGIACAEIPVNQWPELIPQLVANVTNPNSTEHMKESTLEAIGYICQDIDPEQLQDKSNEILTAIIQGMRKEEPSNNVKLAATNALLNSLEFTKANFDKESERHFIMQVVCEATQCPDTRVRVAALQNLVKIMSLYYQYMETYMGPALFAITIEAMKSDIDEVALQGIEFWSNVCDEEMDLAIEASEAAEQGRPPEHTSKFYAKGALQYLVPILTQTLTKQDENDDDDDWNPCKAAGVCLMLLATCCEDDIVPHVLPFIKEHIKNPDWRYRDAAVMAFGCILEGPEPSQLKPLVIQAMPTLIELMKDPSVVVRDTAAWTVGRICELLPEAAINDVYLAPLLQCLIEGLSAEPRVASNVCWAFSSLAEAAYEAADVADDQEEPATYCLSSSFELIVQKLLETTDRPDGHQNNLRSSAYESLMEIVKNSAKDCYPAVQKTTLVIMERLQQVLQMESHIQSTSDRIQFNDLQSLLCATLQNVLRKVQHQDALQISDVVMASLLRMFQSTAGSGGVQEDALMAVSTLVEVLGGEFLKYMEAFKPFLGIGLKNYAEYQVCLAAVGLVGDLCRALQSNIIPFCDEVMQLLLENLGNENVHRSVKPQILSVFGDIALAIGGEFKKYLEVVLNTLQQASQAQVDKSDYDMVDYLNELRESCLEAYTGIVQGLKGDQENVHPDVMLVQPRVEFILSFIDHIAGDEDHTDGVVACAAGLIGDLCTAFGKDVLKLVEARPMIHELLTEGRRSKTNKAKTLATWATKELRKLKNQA

Chain of His-tagged Importin β (Impβ), H. sapiens, from pQE60-Impβ (human) (Q14974 whole entry): as the sequence (Q14974 whole entry, one chain of several) above
Chain of His-tagged Importin β (Impβ), H. sapiens, from pQE60-Impβ (Q14974 whole entry): as the sequence (Q14974 whole entry, one chain of several) above

- fold reduction of binding against the wild-type NlB region (1002-1038) [1]: 7 fold
Molecule: GST-tagged Imp7 (1002-1038) fragment P1024G (domain or fragment)

- fold reduction of affinity against the wild-type NlB region (1002-1038) [1]: 4 fold
Molecule: GST-tagged Imp7 (1002-1038) fragment V1023T (domain or fragment)

- fold reduction of affinity against the wild-type NlB region (1002-1038) [1]: 15 fold
Molecule: GST-tagged Imp7 (1002-1038) fragment V1023E (domain or fragment)

- fold reduction of affinity against the wild-type NlB region (1002-1038) [2]: ≥ 5 fold
Molecule: RRAAHESKMIEKHGGYKYNAPVVPSTFNFGNPAPGMN (domain or fragment, X. laevis, UniProt O42480 1002-1038, looked up) [GST-tagged Imp7 (1002-1038) fragment F1019Y]

- fold reduction of affinity against the wild-type NlB region (1002-1038) [2]: ≥ 5 fold
Molecule: RRAAHESKMIEKHGGYKFNAPVVPSTYNFGNPAPGMN (domain or fragment, X. laevis, UniProt O42480 1002-1038, looked up) [GST-tagged Imp7 (1002-1038) fragment F1028Y]

- fold reduction of affinity against the wild-type NlB region (1002-1038) [2]: ≥ 5 fold
Molecule: RRAAHESKMIEKHGGYKFNAPVVPSTFNYGNPAPGMN (domain or fragment, X. laevis, UniProt O42480 1002-1038, looked up) [GST-tagged Imp7 (1002-1038) fragment F1030Y]

- fold increase of affinity against the wild-type NlB region (1002-1038) [2]: ~2 fold
Molecule: RRAAHESKMIEKHGGYKFNAPVVPSTFNFGGPAPGMN (domain or fragment, X. laevis, UniProt O42480 1002-1038, looked up) [GST-tagged Imp7 (1002-1038) fragment N1032G]

- fold increase of affinity against the wild-type NlB region (1002-1038) [2]: ~2 fold
Molecule: RRAAHESKMIEKHGGYKFNAPVVPSTFSFGNPAPGMN (domain or fragment, X. laevis, UniProt O42480 1002-1038, looked up) [GST-tagged Imp7 (1002-1038) fragment N1029S]

- binding result [3]: binds
B1: Histone H1.11L from chicken (natural protein, chicken (Gallus gallus), UniProt P08287 1-225, looked up)
chain: MSETAPAPAAEAAPAAAPAPAKAAAKKPKKAAGGAKARKPAGPSVTELITKAVSASKERKGLSLAALKKALAAGGYDVEKNNSRIKLGLKSLVSKGTLVQTKGTGASGSFRLSKKPGEVKEKAPKKKASAAKPKKPAAKKPAAAAKKPKKAVAVKKSPKKAKKPAASATKKSAKSPKKVTKAVKPKKAVAAKSPAKAKAVKPKAAKPKAAKPKAAKAKKAAAKKK

- fold reduction of affinity against the NlB region (1002-1038) [2]: ~4 fold
Molecule: GYKFNAPVVPSTFNF (domain or fragment, X. laevis, UniProt O42480 1016-1030, looked up) [GST-NlB 1016-1030]
